The record followed here is patent US20260015399A1 (Boehringer Ingelheim, published 2026).

*1 amine or outer side, *2 acyl side, *3 side chain or, on linkers, in order; H or OH if unused. Side-chain parts run from the residue outwards. The star is where a group is joined. C18 diacid = O=C(O)CCCCCCCCCCCCCCCCC(=O)*; γGlu = O=C(O)[C@H](CCC(=O)[*:2])N[*:1]; Isovaleryl = CC(C)CC(=O)*; Ahx = NCCCCCC(=O)O

T1: human NPY2 receptor (human, UniProt P49146 1-381)
T1 construct: whole, on cells; also called hNPY2-R; hNPY2R
T1 sequence (looked up): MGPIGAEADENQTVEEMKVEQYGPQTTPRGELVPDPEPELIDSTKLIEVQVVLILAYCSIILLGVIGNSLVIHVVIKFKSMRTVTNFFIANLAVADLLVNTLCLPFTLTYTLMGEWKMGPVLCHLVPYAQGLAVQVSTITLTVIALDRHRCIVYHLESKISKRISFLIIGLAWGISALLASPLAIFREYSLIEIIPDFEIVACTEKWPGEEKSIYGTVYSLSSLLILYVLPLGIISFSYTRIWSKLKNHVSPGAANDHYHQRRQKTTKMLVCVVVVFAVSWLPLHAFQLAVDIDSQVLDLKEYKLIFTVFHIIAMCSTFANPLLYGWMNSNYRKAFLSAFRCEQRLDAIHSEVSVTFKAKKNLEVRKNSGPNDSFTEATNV

B1: Compound 151 (peptide)
peptide: Isovaleryl-APEK([Ahx-γGlu-C18 diacid])PEEDSSPEELQRYYVALRHYYNWLTRQRY-NH2
SMILES: CC(C)CC(=O)N[C@@H](C)C(=O)N1CCC[C@H]1C(=O)N[C@@H](CCC(=O)O)C(=O)N[C@@H](CCCCNC(=O)CCCCCNC(=O)CC[C@H](NC(=O)CCCCCCCCCCCCCCCCC(=O)O)C(=O)O)C(=O)N1CCC[C@H]1C(=O)N[C@@H](CCC(=O)O)C(=O)N[C@@H](CCC(=O)O)C(=O)N[C@@H](CC(=O)O)C(=O)N[C@@H](CO)C(=O)N[C@@H](CO)C(=O)N1CCC[C@H]1C(=O)N[C@@H](CCC(=O)O)C(=O)N[C@@H](CCC(=O)O)C(=O)N[C@@H](CC(C)C)C(=O)N[C@@H](CCC(N)=O)C(=O)N[C@@H](CCCNC(=N)N)C(=O)N[C@@H](Cc1ccc(O)cc1)C(=O)N[C@@H](Cc1ccc(O)cc1)C(=O)N[C@H](C(=O)N[C@@H](C)C(=O)N[C@@H](CC(C)C)C(=O)N[C@@H](CCCNC(=N)N)C(=O)N[C@@H](Cc1c[nH]cn1)C(=O)N[C@@H](Cc1ccc(O)cc1)C(=O)N[C@@H](Cc1ccc(O)cc1)C(=O)N[C@@H](CC(N)=O)C(=O)N[C@@H](Cc1c[nH]c2ccccc12)C(=O)N[C@@H](CC(C)C)C(=O)N[C@H](C(=O)N[C@@H](CCCNC(=N)N)C(=O)N[C@@H](CCC(N)=O)C(=O)N[C@@H](CCCNC(=N)N)C(=O)N[C@@H](Cc1ccc(O)cc1)C(N)=O)[C@@H](C)O)C(C)C
notes: printed structure identical to Compound 24
B2: Compound 152 (peptide)
peptide: Isovaleryl-APEK([Ahx-γGlu-C18 diacid])PEEDATPEETQRYYVSLRHYYNWLTRQRY-NH2
SMILES: CC(C)CC(=O)N[C@@H](C)C(=O)N1CCC[C@H]1C(=O)N[C@@H](CCC(=O)O)C(=O)N[C@@H](CCCCNC(=O)CCCCCNC(=O)CC[C@H](NC(=O)CCCCCCCCCCCCCCCCC(=O)O)C(=O)O)C(=O)N1CCC[C@H]1C(=O)N[C@@H](CCC(=O)O)C(=O)N[C@@H](CCC(=O)O)C(=O)N[C@@H](CC(=O)O)C(=O)N[C@@H](C)C(=O)N[C@H](C(=O)N1CCC[C@H]1C(=O)N[C@@H](CCC(=O)O)C(=O)N[C@@H](CCC(=O)O)C(=O)N[C@H](C(=O)N[C@@H](CCC(N)=O)C(=O)N[C@@H](CCCNC(=N)N)C(=O)N[C@@H](Cc1ccc(O)cc1)C(=O)N[C@@H](Cc1ccc(O)cc1)C(=O)N[C@H](C(=O)N[C@@H](CO)C(=O)N[C@@H](CC(C)C)C(=O)N[C@@H](CCCNC(=N)N)C(=O)N[C@@H](Cc1c[nH]cn1)C(=O)N[C@@H](Cc1ccc(O)cc1)C(=O)N[C@@H](Cc1ccc(O)cc1)C(=O)N[C@@H](CC(N)=O)C(=O)N[C@@H](Cc1c[nH]c2ccccc12)C(=O)N[C@@H](CC(C)C)C(=O)N[C@H](C(=O)N[C@@H](CCCNC(=N)N)C(=O)N[C@@H](CCC(N)=O)C(=O)N[C@@H](CCCNC(=N)N)C(=O)N[C@@H](Cc1ccc(O)cc1)C(N)=O)[C@@H](C)O)C(C)C)[C@@H](C)O)[C@@H](C)O
B3: Compound 156 (peptide)
peptide: Isovaleryl-APEK([Ahx-γGlu-C18 diacid])PEEAAEPEEIQRYYVALRHYYNWLTRQRY-NH2
SMILES: CC[C@H](C)[C@H](NC(=O)[C@H](CCC(=O)O)NC(=O)[C@H](CCC(=O)O)NC(=O)[C@@H]1CCCN1C(=O)[C@H](CCC(=O)O)NC(=O)[C@H](C)NC(=O)[C@H](C)NC(=O)[C@H](CCC(=O)O)NC(=O)[C@H](CCC(=O)O)NC(=O)[C@@H]1CCCN1C(=O)[C@H](CCCCNC(=O)CCCCCNC(=O)CC[C@H](NC(=O)CCCCCCCCCCCCCCCCC(=O)O)C(=O)O)NC(=O)[C@H](CCC(=O)O)NC(=O)[C@@H]1CCCN1C(=O)[C@H](C)NC(=O)CC(C)C)C(=O)N[C@@H](CCC(N)=O)C(=O)N[C@@H](CCCNC(=N)N)C(=O)N[C@@H](Cc1ccc(O)cc1)C(=O)N[C@@H](Cc1ccc(O)cc1)C(=O)N[C@H](C(=O)N[C@@H](C)C(=O)N[C@@H](CC(C)C)C(=O)N[C@@H](CCCNC(=N)N)C(=O)N[C@@H](Cc1c[nH]cn1)C(=O)N[C@@H](Cc1ccc(O)cc1)C(=O)N[C@@H](Cc1ccc(O)cc1)C(=O)N[C@@H](CC(N)=O)C(=O)N[C@@H](Cc1c[nH]c2ccccc12)C(=O)N[C@@H](CC(C)C)C(=O)N[C@H](C(=O)N[C@@H](CCCNC(=N)N)C(=O)N[C@@H](CCC(N)=O)C(=O)N[C@@H](CCCNC(=N)N)C(=O)N[C@@H](Cc1ccc(O)cc1)C(N)=O)[C@@H](C)O)C(C)C
B4: Compound 155 (peptide)
peptide: Isovaleryl-APEK([Ahx-γGlu-C18 diacid])PEEDATPEELQRYYVSLRHYYNWLSRQRY-NH2
SMILES: CC(C)CC(=O)N[C@@H](C)C(=O)N1CCC[C@H]1C(=O)N[C@@H](CCC(=O)O)C(=O)N[C@@H](CCCCNC(=O)CCCCCNC(=O)CC[C@H](NC(=O)CCCCCCCCCCCCCCCCC(=O)O)C(=O)O)C(=O)N1CCC[C@H]1C(=O)N[C@@H](CCC(=O)O)C(=O)N[C@@H](CCC(=O)O)C(=O)N[C@@H](CC(=O)O)C(=O)N[C@@H](C)C(=O)N[C@H](C(=O)N1CCC[C@H]1C(=O)N[C@@H](CCC(=O)O)C(=O)N[C@@H](CCC(=O)O)C(=O)N[C@@H](CC(C)C)C(=O)N[C@@H](CCC(N)=O)C(=O)N[C@@H](CCCNC(=N)N)C(=O)N[C@@H](Cc1ccc(O)cc1)C(=O)N[C@@H](Cc1ccc(O)cc1)C(=O)N[C@H](C(=O)N[C@@H](CO)C(=O)N[C@@H](CC(C)C)C(=O)N[C@@H](CCCNC(=N)N)C(=O)N[C@@H](Cc1c[nH]cn1)C(=O)N[C@@H](Cc1ccc(O)cc1)C(=O)N[C@@H](Cc1ccc(O)cc1)C(=O)N[C@@H](CC(N)=O)C(=O)N[C@@H](Cc1c[nH]c2ccccc12)C(=O)N[C@@H](CC(C)C)C(=O)N[C@@H](CO)C(=O)N[C@@H](CCCNC(=N)N)C(=O)N[C@@H](CCC(N)=O)C(=O)N[C@@H](CCCNC(=N)N)C(=O)N[C@@H](Cc1ccc(O)cc1)C(N)=O)C(C)C)[C@@H](C)O
B5: Compound 154 (peptide)
peptide: Isovaleryl-APEK([Ahx-γGlu-C18 diacid])PEEAATPEEIQRYYVALRHYYNWLTRQRY-NH2
SMILES: CC[C@H](C)[C@H](NC(=O)[C@H](CCC(=O)O)NC(=O)[C@H](CCC(=O)O)NC(=O)[C@@H]1CCCN1C(=O)[C@@H](NC(=O)[C@H](C)NC(=O)[C@H](C)NC(=O)[C@H](CCC(=O)O)NC(=O)[C@H](CCC(=O)O)NC(=O)[C@@H]1CCCN1C(=O)[C@H](CCCCNC(=O)CCCCCNC(=O)CC[C@H](NC(=O)CCCCCCCCCCCCCCCCC(=O)O)C(=O)O)NC(=O)[C@H](CCC(=O)O)NC(=O)[C@@H]1CCCN1C(=O)[C@H](C)NC(=O)CC(C)C)[C@@H](C)O)C(=O)N[C@@H](CCC(N)=O)C(=O)N[C@@H](CCCNC(=N)N)C(=O)N[C@@H](Cc1ccc(O)cc1)C(=O)N[C@@H](Cc1ccc(O)cc1)C(=O)N[C@H](C(=O)N[C@@H](C)C(=O)N[C@@H](CC(C)C)C(=O)N[C@@H](CCCNC(=N)N)C(=O)N[C@@H](Cc1c[nH]cn1)C(=O)N[C@@H](Cc1ccc(O)cc1)C(=O)N[C@@H](Cc1ccc(O)cc1)C(=O)N[C@@H](CC(N)=O)C(=O)N[C@@H](Cc1c[nH]c2ccccc12)C(=O)N[C@@H](CC(C)C)C(=O)N[C@H](C(=O)N[C@@H](CCCNC(=N)N)C(=O)N[C@@H](CCC(N)=O)C(=O)N[C@@H](CCCNC(=N)N)C(=O)N[C@@H](Cc1ccc(O)cc1)C(N)=O)[C@@H](C)O)C(C)C
B6: Compound 153 (peptide)
peptide: Isovaleryl-APEK([Ahx-γGlu-C18 diacid])PEELATPEELQRYYVSLRHYYNWLTRQRY-NH2
SMILES: CC(C)CC(=O)N[C@@H](C)C(=O)N1CCC[C@H]1C(=O)N[C@@H](CCC(=O)O)C(=O)N[C@@H](CCCCNC(=O)CCCCCNC(=O)CC[C@H](NC(=O)CCCCCCCCCCCCCCCCC(=O)O)C(=O)O)C(=O)N1CCC[C@H]1C(=O)N[C@@H](CCC(=O)O)C(=O)N[C@@H](CCC(=O)O)C(=O)N[C@@H](CC(C)C)C(=O)N[C@@H](C)C(=O)N[C@H](C(=O)N1CCC[C@H]1C(=O)N[C@@H](CCC(=O)O)C(=O)N[C@@H](CCC(=O)O)C(=O)N[C@@H](CC(C)C)C(=O)N[C@@H](CCC(N)=O)C(=O)N[C@@H](CCCNC(=N)N)C(=O)N[C@@H](Cc1ccc(O)cc1)C(=O)N[C@@H](Cc1ccc(O)cc1)C(=O)N[C@H](C(=O)N[C@@H](CO)C(=O)N[C@@H](CC(C)C)C(=O)N[C@@H](CCCNC(=N)N)C(=O)N[C@@H](Cc1c[nH]cn1)C(=O)N[C@@H](Cc1ccc(O)cc1)C(=O)N[C@@H](Cc1ccc(O)cc1)C(=O)N[C@@H](CC(N)=O)C(=O)N[C@@H](Cc1c[nH]c2ccccc12)C(=O)N[C@@H](CC(C)C)C(=O)N[C@H](C(=O)N[C@@H](CCCNC(=N)N)C(=O)N[C@@H](CCC(N)=O)C(=O)N[C@@H](CCCNC(=N)N)C(=O)N[C@@H](Cc1ccc(O)cc1)C(N)=O)[C@@H](C)O)C(C)C)[C@@H](C)O

In the experiment the target is T1, human NPY2 receptor. In words: RLB: displacement of 125I-PYY(1-36) from hNPY2R membranes. (Loss of bound radioactivity is the signal in a displacement assay; it reports binding, not function.)
B1 came in with a Ki of 1.68 nM.

Molecule B2 yielded an inhibition constant Ki of 1.32 nM.

B3 yielded an inhibition constant Ki of 4.2 nM.

B4: affinity was put at a Ki of 7.6 nM.

Regarding B5, the inhibition constant Ki is 3.71 nM.

B6 gave an inhibition constant Ki of 6.8 nM.

A word on the Ki: it is a measure of affinity in units of concentration, obtained from inhibition or displacement. A lower Ki goes with higher affinity.
